Data published in IntAct's records for PubMed 8114715.
Values belong to the substance of their own block, whether it stands above or below them.

Key:
lck_human LCK [1] = target: lck_human LCK (UniProt P06239)
lck_human LCK [2] = target: lck_human LCK (UniProt P06239); remark: listed apart in the source
lck_human LCK [3] = target: lck_human LCK (UniProt P06239); remark: listed apart in the source

lck_human LCK, sequence (P06239 whole entry, looked up): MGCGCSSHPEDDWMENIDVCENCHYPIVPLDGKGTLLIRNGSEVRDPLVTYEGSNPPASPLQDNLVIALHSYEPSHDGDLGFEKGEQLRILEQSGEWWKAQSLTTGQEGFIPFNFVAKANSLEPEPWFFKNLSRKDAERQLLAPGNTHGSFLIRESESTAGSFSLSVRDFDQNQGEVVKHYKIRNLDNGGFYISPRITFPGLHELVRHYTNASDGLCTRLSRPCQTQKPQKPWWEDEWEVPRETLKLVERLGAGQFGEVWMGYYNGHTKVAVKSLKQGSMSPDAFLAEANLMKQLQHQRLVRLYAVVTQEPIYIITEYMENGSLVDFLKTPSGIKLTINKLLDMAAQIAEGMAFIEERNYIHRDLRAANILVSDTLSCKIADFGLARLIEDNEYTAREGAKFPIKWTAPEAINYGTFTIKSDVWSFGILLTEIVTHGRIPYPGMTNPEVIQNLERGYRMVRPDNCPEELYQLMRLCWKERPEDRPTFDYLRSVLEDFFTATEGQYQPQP
Tyrosine-protein phosphatase non-receptor type 6 (Homo sapiens), P29350 Y536F, sequence (P29350 whole entry Y536F): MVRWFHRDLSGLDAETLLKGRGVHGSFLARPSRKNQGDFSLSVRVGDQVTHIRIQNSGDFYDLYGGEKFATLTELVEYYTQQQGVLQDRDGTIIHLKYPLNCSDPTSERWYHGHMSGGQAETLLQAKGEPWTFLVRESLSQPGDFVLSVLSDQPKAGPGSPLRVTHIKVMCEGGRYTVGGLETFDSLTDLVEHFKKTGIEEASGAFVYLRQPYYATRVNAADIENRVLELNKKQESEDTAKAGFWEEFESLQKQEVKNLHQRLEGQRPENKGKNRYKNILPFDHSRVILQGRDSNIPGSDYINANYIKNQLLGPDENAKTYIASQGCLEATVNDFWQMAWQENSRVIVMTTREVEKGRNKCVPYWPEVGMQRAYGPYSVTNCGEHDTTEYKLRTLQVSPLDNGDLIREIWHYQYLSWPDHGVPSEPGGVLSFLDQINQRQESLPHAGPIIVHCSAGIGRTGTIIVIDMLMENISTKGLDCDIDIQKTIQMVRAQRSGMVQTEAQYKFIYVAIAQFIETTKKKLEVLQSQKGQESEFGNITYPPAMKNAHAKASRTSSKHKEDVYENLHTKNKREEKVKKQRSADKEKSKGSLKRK
Tyrosine-protein phosphatase non-receptor type 6 (Homo sapiens), P29350 Y564F, sequence (P29350 whole entry Y564F): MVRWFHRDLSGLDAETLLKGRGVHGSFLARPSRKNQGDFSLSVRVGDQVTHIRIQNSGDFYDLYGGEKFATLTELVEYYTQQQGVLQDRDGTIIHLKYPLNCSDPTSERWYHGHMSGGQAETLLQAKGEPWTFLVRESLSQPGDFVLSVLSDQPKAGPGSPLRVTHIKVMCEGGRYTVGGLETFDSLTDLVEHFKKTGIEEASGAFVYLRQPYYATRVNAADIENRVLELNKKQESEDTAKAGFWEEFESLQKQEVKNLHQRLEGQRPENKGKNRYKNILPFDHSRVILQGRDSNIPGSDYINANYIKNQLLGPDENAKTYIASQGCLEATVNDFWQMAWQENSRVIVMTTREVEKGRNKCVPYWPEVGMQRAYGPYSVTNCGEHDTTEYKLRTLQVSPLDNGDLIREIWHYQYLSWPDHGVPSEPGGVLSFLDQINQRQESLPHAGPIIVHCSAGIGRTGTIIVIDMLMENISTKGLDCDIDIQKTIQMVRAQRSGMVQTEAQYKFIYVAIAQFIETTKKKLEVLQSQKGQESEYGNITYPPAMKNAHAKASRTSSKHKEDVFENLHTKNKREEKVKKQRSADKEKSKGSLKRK
Tyrosine-protein phosphatase non-receptor type 6 (Homo sapiens), P29350 Y541F, sequence (P29350 whole entry Y541F): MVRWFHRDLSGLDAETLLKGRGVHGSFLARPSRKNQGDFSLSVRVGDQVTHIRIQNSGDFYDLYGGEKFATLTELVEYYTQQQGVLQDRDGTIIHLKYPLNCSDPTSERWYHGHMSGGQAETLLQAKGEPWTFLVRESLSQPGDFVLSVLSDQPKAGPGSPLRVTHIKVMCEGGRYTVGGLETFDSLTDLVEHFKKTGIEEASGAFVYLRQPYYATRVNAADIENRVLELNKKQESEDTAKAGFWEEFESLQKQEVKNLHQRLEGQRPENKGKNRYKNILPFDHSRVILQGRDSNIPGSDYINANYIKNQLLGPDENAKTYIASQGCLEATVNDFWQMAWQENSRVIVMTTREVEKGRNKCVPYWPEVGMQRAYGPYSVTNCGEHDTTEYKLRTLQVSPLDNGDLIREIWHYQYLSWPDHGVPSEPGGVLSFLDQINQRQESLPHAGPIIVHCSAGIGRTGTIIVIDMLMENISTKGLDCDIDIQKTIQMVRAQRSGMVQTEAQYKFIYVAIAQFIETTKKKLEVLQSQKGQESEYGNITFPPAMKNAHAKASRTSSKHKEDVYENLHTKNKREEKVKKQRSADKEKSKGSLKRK

effect of a mutation on the interaction (lck_human LCK [1]): decreasing interaction
Substance: Tyrosine-protein phosphatase non-receptor type 6 (Homo sapiens), P29350 Y564F

effect of a mutation on the interaction (lck_human LCK [2]): decreasing interaction
Substance: Tyrosine-protein phosphatase non-receptor type 6 (Homo sapiens), P29350 Y536F

effect of a mutation on the interaction (lck_human LCK [3]): decreasing interaction
Substance: Tyrosine-protein phosphatase non-receptor type 6 (Homo sapiens), P29350 Y541F
